Biological target: T1, Human full-length TOP2B (topoisomerase II beta) (human), Q02880
T1 chain: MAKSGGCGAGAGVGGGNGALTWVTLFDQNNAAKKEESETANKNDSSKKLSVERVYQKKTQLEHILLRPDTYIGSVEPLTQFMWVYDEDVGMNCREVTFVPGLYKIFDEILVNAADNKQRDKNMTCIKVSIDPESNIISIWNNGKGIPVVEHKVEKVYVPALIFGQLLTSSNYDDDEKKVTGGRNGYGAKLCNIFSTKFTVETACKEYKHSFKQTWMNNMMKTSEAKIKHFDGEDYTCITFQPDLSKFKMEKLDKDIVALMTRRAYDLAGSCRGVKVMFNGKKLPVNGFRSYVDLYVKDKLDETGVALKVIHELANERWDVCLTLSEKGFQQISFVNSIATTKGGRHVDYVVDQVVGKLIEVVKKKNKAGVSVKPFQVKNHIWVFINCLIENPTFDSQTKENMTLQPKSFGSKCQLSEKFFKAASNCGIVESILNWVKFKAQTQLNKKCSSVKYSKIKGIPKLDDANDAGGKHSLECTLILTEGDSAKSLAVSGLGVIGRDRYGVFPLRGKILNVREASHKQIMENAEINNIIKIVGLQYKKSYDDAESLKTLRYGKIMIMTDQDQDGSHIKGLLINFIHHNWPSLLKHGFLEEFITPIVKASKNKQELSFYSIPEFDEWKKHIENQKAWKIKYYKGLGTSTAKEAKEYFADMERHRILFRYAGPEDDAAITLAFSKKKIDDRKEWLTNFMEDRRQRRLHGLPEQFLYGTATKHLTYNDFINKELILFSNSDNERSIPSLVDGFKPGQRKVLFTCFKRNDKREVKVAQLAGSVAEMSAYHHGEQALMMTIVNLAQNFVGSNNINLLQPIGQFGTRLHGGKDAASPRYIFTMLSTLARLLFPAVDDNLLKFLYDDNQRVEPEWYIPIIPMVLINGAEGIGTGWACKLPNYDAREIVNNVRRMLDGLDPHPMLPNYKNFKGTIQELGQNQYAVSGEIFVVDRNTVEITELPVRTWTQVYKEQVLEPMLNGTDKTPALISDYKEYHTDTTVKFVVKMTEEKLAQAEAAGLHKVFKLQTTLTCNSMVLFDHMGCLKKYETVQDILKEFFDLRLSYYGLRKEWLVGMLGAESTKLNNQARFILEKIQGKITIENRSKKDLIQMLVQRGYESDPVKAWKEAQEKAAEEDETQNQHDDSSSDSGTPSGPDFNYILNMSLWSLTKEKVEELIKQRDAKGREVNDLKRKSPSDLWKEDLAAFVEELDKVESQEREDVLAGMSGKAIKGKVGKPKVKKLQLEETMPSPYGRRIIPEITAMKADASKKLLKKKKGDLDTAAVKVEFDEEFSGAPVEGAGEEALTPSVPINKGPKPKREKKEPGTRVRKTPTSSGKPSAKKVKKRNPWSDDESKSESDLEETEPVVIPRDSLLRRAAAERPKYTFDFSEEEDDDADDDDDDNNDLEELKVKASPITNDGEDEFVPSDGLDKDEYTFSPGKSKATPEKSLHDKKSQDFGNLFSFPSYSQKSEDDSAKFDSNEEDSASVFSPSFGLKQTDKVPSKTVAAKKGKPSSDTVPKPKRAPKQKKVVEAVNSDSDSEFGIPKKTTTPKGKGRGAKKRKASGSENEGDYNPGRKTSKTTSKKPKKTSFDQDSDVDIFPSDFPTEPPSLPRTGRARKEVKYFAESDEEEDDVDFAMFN
Test: cryo-EM structure; 8.3 uM TOP2B, 16.7 uM EGR1 TSS dsDNA (50 bp, -30 to +20) and 1.67 uM etoposide in 20 mM HEPES pH 8.0, 5 mM KCl, 5 mM MgCl2, 0.5 mM ATP; C2 symmetry imposed in 3D refinement (also reconstructed without it)
Conditions: remark: other sources report otherwise

B1: Human full-length TOP2B (topoisomerase II beta), Q02880 1-1626 (enzyme)
chain: MAKSGGCGAGAGVGGGNGALTWVTLFDQNNAAKKEESETANKNDSSKKLSVERVYQKKTQLEHILLRPDTYIGSVEPLTQFMWVYDEDVGMNCREVTFVPGLYKIFDEILVNAADNKQRDKNMTCIKVSIDPESNIISIWNNGKGIPVVEHKVEKVYVPALIFGQLLTSSNYDDDEKKVTGGRNGYGAKLCNIFSTKFTVETACKEYKHSFKQTWMNNMMKTSEAKIKHFDGEDYTCITFQPDLSKFKMEKLDKDIVALMTRRAYDLAGSCRGVKVMFNGKKLPVNGFRSYVDLYVKDKLDETGVALKVIHELANERWDVCLTLSEKGFQQISFVNSIATTKGGRHVDYVVDQVVGKLIEVVKKKNKAGVSVKPFQVKNHIWVFINCLIENPTFDSQTKENMTLQPKSFGSKCQLSEKFFKAASNCGIVESILNWVKFKAQTQLNKKCSSVKYSKIKGIPKLDDANDAGGKHSLECTLILTEGDSAKSLAVSGLGVIGRDRYGVFPLRGKILNVREASHKQIMENAEINNIIKIVGLQYKKSYDDAESLKTLRYGKIMIMTDQDQDGSHIKGLLINFIHHNWPSLLKHGFLEEFITPIVKASKNKQELSFYSIPEFDEWKKHIENQKAWKIKYYKGLGTSTAKEAKEYFADMERHRILFRYAGPEDDAAITLAFSKKKIDDRKEWLTNFMEDRRQRRLHGLPEQFLYGTATKHLTYNDFINKELILFSNSDNERSIPSLVDGFKPGQRKVLFTCFKRNDKREVKVAQLAGSVAEMSAYHHGEQALMMTIVNLAQNFVGSNNINLLQPIGQFGTRLHGGKDAASPRYIFTMLSTLARLLFPAVDDNLLKFLYDDNQRVEPEWYIPIIPMVLINGAEGIGTGWACKLPNYDAREIVNNVRRMLDGLDPHPMLPNYKNFKGTIQELGQNQYAVSGEIFVVDRNTVEITELPVRTWTQVYKEQVLEPMLNGTDKTPALISDYKEYHTDTTVKFVVKMTEEKLAQAEAAGLHKVFKLQTTLTCNSMVLFDHMGCLKKYETVQDILKEFFDLRLSYYGLRKEWLVGMLGAESTKLNNQARFILEKIQGKITIENRSKKDLIQMLVQRGYESDPVKAWKEAQEKAAEEDETQNQHDDSSSDSGTPSGPDFNYILNMSLWSLTKEKVEELIKQRDAKGREVNDLKRKSPSDLWKEDLAAFVEELDKVESQEREDVLAGMSGKAIKGKVGKPKVKKLQLEETMPSPYGRRIIPEITAMKADASKKLLKKKKGDLDTAAVKVEFDEEFSGAPVEGAGEEALTPSVPINKGPKPKREKKEPGTRVRKTPTSSGKPSAKKVKKRNPWSDDESKSESDLEETEPVVIPRDSLLRRAAAERPKYTFDFSEEEDDDADDDDDDNNDLEELKVKASPITNDGEDEFVPSDGLDKDEYTFSPGKSKATPEKSLHDKKSQDFGNLFSFPSYSQKSEDDSAKFDSNEEDSASVFSPSFGLKQTDKVPSKTVAAKKGKPSSDTVPKPKRAPKQKKVVEAVNSDSDSEFGIPKKTTTPKGKGRGAKKRKASGSENEGDYNPGRKTSKTTSKKPKKTSFDQDSDVDIFPSDFPTEPPSLPRTGRARKEVKYFAESDEEEDDVDFAMFN
B1 showed a stoichiometry N of 2.

Source: PMC10721843
